Ends that are not written are not given here.

For this experiment, the target named is T1, GST-IgFLNa21 (amino acids 2236–2329) (human, UniProt P21333 2236-2329).
T1 sequence (looked up): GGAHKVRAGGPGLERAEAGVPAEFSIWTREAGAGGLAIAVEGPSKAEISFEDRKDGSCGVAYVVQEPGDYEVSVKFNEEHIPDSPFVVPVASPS
The experiment is described as follows: pull-down.

B1: recombinant His-tagged integrin β7 cytoplasmic tail model protein (domain or fragment, UniProt P26010 747-798, looked up)
chain: RLSVEIYDRREYSRFEKEQQQLNWKQDSNPLYKSAITTTINPRFQEADSPTL
modifications: also: His-tagged, tag place not given here
What is called Kd is the concentration at which binding is half-saturated. Lower therefore signals higher affinity. As to B1, binding was put at a Kd of 700 ± 100 nM.
